Data as given in patent US20030157712A1, “Methods for determining cell responses through EphB receptors” (priority 1997, published 2003).

T1: EphB1 (Homo sapiens, UniProt P54762)
T1 construct: Ligand stimulation and immunoprecipitation of endogenous EphB receptors; endogenous in cells; host or cells: HRMEC (human); P19 (murine teratocarcinoma) in part of the results
T1 sequence (P54762 18-984): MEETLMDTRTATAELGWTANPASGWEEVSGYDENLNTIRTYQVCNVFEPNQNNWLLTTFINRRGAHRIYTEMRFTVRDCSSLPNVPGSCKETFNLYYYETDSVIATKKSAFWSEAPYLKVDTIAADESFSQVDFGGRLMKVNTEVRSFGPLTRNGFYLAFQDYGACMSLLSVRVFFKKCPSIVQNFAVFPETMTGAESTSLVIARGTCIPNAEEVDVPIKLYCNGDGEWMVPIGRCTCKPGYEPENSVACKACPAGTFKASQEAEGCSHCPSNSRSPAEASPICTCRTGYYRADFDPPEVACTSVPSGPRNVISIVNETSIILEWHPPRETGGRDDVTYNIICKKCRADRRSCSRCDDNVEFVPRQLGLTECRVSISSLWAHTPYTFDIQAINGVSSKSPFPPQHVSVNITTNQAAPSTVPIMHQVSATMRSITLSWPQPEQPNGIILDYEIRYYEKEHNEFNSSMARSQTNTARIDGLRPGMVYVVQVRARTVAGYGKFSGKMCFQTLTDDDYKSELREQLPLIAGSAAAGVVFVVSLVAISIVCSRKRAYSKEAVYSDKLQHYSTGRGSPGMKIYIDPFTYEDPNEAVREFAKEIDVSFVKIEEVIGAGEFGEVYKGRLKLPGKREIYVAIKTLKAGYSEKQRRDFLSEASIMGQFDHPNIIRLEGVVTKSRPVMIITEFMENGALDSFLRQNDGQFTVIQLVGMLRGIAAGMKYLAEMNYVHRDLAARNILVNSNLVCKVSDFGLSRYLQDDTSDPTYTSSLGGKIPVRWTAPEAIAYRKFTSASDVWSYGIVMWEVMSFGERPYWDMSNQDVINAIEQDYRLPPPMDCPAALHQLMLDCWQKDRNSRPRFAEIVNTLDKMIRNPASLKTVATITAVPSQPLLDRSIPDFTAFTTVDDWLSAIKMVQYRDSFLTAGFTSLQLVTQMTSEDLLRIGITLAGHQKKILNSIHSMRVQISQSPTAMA


Legend:
EphB1 = molecular target: T1, EphB1; assay: EphB1 immunoprecipitation and phosphotyrosine immunoblot; format: cell-based; conditions: in each cell type (HRMEC, HUVEC)
HRMEC [1] = assay: Endothelial assembly into capillary-like structures (HRMEC); format: cell-based, human; conditions: Matrigel-coated surfaces, defined medium; vascular bed comparison
Experimental: Endothelial assembly into capillary-like structures. Twelve well plates (Falcon) were coated with thin layers of Matrigel. HRMEC were plated at a density of 4×10^4 cells/well in DME containing 1% fetal bovine serum. Indicated agonists, control peptides, alone, or in combination with the EphB1/Fc antagonist (1000 ng ml^−1) (FIG. 5) were added at the time of plating. Cells were incubated at 37° C. for 8 h and photographed using phase microscopy (magnification 100×) (Diaphot-TMD, Nikon).

HUVEC [2] = assay: Two dimensional capillary-like assembly assay (HUVEC); format: cell-based, human; conditions: Matrigel-coated surfaces, defined medium; vascular bed comparison
Experimental: (§1) For these studies, HRMEC or HUVEC were plated on Matrigel-coated surfaces in defined medium in a two dimensional capillary-like assembly assay. Ephrin-B1 promoted capillary-like assembly of HRMEC, but not HUVEC, while ephrin-A1 promoted assembly of HUVEC but not HRMEC, in identical media at concentrations appropriate for their respective affinities for EphB1 and EphA2. In each cell type, ephrin-B1 and ephrin-A1 promoted tyrosine phosphorylation of 130 kDa EphB1 and EphA2, both of which are expressed in each system.

HEK293 cells = assay: Solid phase cell attachment assay (HEK293); format: cell-based, human
Experimental: Cell culture and transfection. Human embryonic kidney cells, HEK293, were passaged in minimum essential medium (Life Technologies) supplemented with 10% fetal bovine serum (Hyclone Laboratories, Logan, Utah). HRMEC were cultured as described (12). HEK293 cells were transfected with Lipofectamine Plus (Life Technologies) as described by the manufacturer. The expression constructs pSRα-hEphB1-HA, pSRα-hEphB1-HA-K652R, pSRα-hEphB1-HA-Y596F and pSRα-hEphB1-HA-Y929F have been described previously (45,46). Cell attachment assays were performed 48 hours after transfection.
Solid phase cell attachment assays. Forty-eight-well plates (Falcon) were coated with a layer of nitrocellulose (Schleicher & Schuell) and allowed to air dry as described (47). Coated wells were incubated overnight at 4° C. with PBS containing matrix proteins at the indicated concentrations alone (no addition, NA) or in combination with dimeric EphrinB1/Fc. Two hours prior to assay, wells were washed twice then blocked at 37° C. with 1% BSA. Serum starved cells were harvested in 2 mM EDTA in PBS (HEK293) or recovered by trypsinization (HRMEC), washed twice in serum free medium containing 1% BSA, then plated at a density of 0.7-1×10^5 cells per well. […] Adherent cells were fixed with 2% glutaraldehyde, stained with 0.5% crystal violet (in EtOH), and quantified by OD reading at 570 nm. […]

αvβ3 integrin = assay: Surface biotinylation and integrin immunoprecipitation (endothelial cells); format: cell-based, human; conditions: 60 min on coated dishes
Experimental: (§2) Surface biotinylation and integrin immunoprecipitation. To determine if surface integrin expression was altered by transfection and/or exposure to ephrinB1/Fc, cells were biotinylated for 30 min at 4° C. with 0.5 mg/ml Sulfo-NHS-LC-Biotin (Pierce, Rockford, Ill.) before plating onto 60 mm dishes coated with nitrocellulose, fibrinogen and EphrinB1/Fc. After a 60 min incubation at 37° C., cells were harvested in WG buffer (15) and immunoprecipitation performed with 2 ug of the integrin antibodies used in the competition experiments. After SDS-PAGE (non-reducing conditions) and Western blotting, biotinylated proteins were detected by enhanced chemiluminescence using ECL Western Blotting Detection (Amersham).

α5β1 integrin = assay: Surface biotinylation and integrin immunoprecipitation (HEK293); format: cell-based, human; conditions: 60 min on coated dishes
Experimental: as §2

HRMEC [3] = conditions: background art; cited from earlier work
HUVEC [4] = conditions: background art; cited from earlier work
EphA2 = molecular target: T2, EphA2 (Homo sapiens, UniProt P29317); assay: EphA2 tyrosine phosphorylation in endothelial cells; format: cell-based; conditions: in each cell type (HRMEC, HUVEC)
T2 construct: 130 kDa EphB1 and EphA2, both of which are expressed in each system; endogenous in cells; host or cells: HRMEC and HUVEC
Experimental: as §1

Row | tyrosine phosphorylation of 130 kDa EphB1 (EphB1) | tyrosine phosphorylation of 130 kDa EphA2 (EphA2) | Molecule | capillary-like assembly of HRMEC (HRMEC [1]) | capillary-like assembly of HUVEC (HUVEC [2]) | attachment to fibrinogen of HEK293 cells transiently expressing EphB1 (HEK293 cells; 48 hours after transfection) | attachment to fibrinogen or RGD peptide of untransfected HEK293 cells (HEK293 cells; basal conditions, no endogenous EphB1 or EphB2) | surface expression of endothelial αvβ3 integrin (αvβ3 integrin) | surface expression of HEK293 α5β1 integrin (α5β1 integrin) | assembly of HRMEC into capillary-like structures (reference 8) (HRMEC [3]) | capillary-like assembly of HUVEC (reference 8) (HUVEC [4])
1 | promoted | – | Ephrin-B1: transmembrane ligand of EphB subclass receptors (protein) LAKNLEPVSWSSLNPKFLSGKGLVIYPKIGDKLDIICPRAEAGRPYEYYKLYLVRPEQAAACSTVLDPNVLVTCNRPEQEIRFTIKFQEFSPNYMGLEFKKHHDYYITSTSNGSLEGLENREGGVCRTRTMKIIMKVGQDPNAVTPEQLTTSRPSKEADNTVKMATQAPGSRGSLGDSDGKHETVNQEEKSGPGASGGSSGDPDGFFNSK | promoted | not | increases in attachment | no ephrin-B1 dependent change | did not increase | did not increase | promotes | not responsive
2 | – | promoted | ephrin-A1: GPI-linked membrane protein, primary ligand for EphA2 (Eck) (protein) DRHTVFWNSSNPKFRNEDYTIHVQLNDYVDIICPHYEDHSVADAAMEQYILYLVEHEEYQLCQPQSKDQVRWQCNRPSAKHGPEKLSEKFQRFTPFTLGKEFKEGHSYYYISKPIHQHEDRCLRLKVTVSGKITHSPQAHDNPQEKRLAADDPEVRVLHSIGHS | not | promoted | – | – | – | – | no capillary-assembly activity | promotes
